Test results from PMC12294753, “Development of INER-PP-F11N as the Peptide-Radionuclide Conjugate Drug Against CCK2 Receptor-Overexpressing Tumors” (International Journal of Molecular Sciences, 2025).
“Also recorded” adds a separate entry of the source. Like-named read-outs stand apart in the source and are kept apart here.

Legend:
[1] = test system: A431-CCK2R (+) tumors; assay: Therapeutic responses to Lu-177-labeled CCK2R analogs in CCK2R-expressing cancer-bearing mice; format: in vivo; details: 200 μCi intravenously
Method: (§1) To generate A431-CCK2R (+) and A431-CCK2R (−) tumor-bearing mice models, mice (3 per group) were inoculated subcutaneously with 6 × 10^6 cells, which were injected into the inner right back leg for A431-CCK2R (+) tumors and the left back leg for A431-CCK2R (−) tumors, respectively. These xenografts were monitored until the tumor volume reached approximately 200–500 mm^3 [57]. The mice were then randomized to subgroups for further experiments. The formula for calculating tumor volume (V) is V = 4/3πr^3.
(§2) We investigated therapeutic responses in mice receiving [^177Lu]Lu-DOTA-PP-F11N, [^177Lu]Lu-DOTA-INER-PP-F11N-1, or [^177Lu]Lu-DOTA-INER-PP-F11N-2. A431-CCK2R (+) and A431-CCK2R (−) cells were implanted subcutaneously into the right and left inner hind legs of NOD/SCID mice. Once the tumors reached a volume of 200–500 mm^3, the mice were intravenously injected with either 200 μCi of [^177Lu]Lu-DOTA-PP-F11N, [^177Lu]Lu-DOTA-INER-PP-F11N-1, [^177Lu]Lu-DOTA-INER-PP-F11N-2, or PBS (as a non-radioactive control). The NanoSPECT/CT® plus scanner system (Mediso Medical Imaging Systems; Budapest, Hungary) was utilized to detect and image tumors in the mouse models. Tumor volumes were measured twice a week for 4 weeks.

[2] = Biodistribution study in tumor-bearing mice; format: in vivo; details: mouse, intravenous, total radioactivity, 72 h after tail-vein injection, tumor-bearing mice
Method: as §1
Mice were sacrificed via CO2 asphyxiation 72 h after intravenous injection of 50–100 μCi (50–100 μL) of radiolabeled DOTA-PP-F11N, DOTA-INER-PP-F11N-1, or DOTA-INER-PP-F11N-2 [58]. Tumors and organs of interest were collected for further pathological examinations. The PerkinElmer 2480 Automatic Gamma Counter (PerkinElmer, Waltham, MA, USA) was used to measure radioactivity; the data are presented as the percentage injected dose per gram of tissue (%ID/g).

[3] = Metabolic stability analysis (radio-HPLC) in PBS at 4 °C or FBS at 37 °C; format: in vitro ADME
Method: DOTA-PP-F11N, DOTA-INER-PP-F11N-1, and DOTA-INER-PP-F11N-2 were labeled with In-111 and Lu-177 for further experiments. The detection of free In-111 after ITLC extension was defined as 0% radiolabeling efficiency. […]
To measure the labeling efficiency, ITLC was performed on glass microfiber chromatography paper impregnated with a silica gel (Agilent Technologies, Santa Clara, CA, USA) as described previously. Briefly, the ITLC sheets were developed with 10% methanol as solvent (Rf free Lu-177 = 0, Rf Lu-177-labeled compounds = 1) and measured using a radioactive scanner (AR-2000 radio-TLC […] Imaging Scanner, Bioscan, France). The sample was mixed with acetonitrile at a 1:1 (v/v) ratio, followed by centrifugation at 16,000× g for 5 min. The resulting supernatant was subsequently analyzed using HPLC with UV (220[…]) and radio detector with a Zorbax SB-C18 column (Agilent Technologies, Santa Clara, CA, USA). The flow rate was 0.8 mL/min, with the gradient mobile phase going from 90% A […] buffer (0.1% TFA in water) and 10% B buffer (0.1% TFA in acetonitrile) to 90% B buffer […] within 20 min.

[4] = test system: A431-CCK2R (+) cells; assay: In vitro binding and internalization assay, A431-CCK2R (+) cells; format: cell-based; design: surface binding activity / internalization activity: concentration or dose not given beside the values; details: A431-CCK2R (+) cells, 37 °C
Method: (§3) In vitro binding and internalization activities were measured using a gamma counter (WIZARD 1480, Perkin-Elmer). Briefly, A431-CCK2R (+) and A431-CCK2R (−) cells were seeded on 24-well plates (1 × 10^5 cells/well, Corning, NY, USA) for 12 h. The plated cells were treated with 30 ± 10 GBq/µmol of [^177Lu]Lu-DOTA-PP-F11N, [^177Lu]Lu-DOTA-INER-PP-F11N-1, or [^177Lu]Lu-DOTA-INER-PP-F11N-2 (1 mL/well) and then incubated at 37 °C for either 1 or 4 h. After incubation, the medium was collected, and the cells were then washed with ice-cold buffer. The medium and washed PBS were collected in tube 0. The washed cells were treated with glycine–HCl buffer (0.1 M, pH 3.0) and incubated for 10 min. After incubation, cells were washed again with glycine–HCl buffer. Both glycine-HCl buffer solutions were collected in tube 1. The washed cells were treated with 1 N NaOH (1 mL/well) and incubated for 10 min for cell lysis. After incubation, the cells were washed once with 1 N NaOH. The cell lysate solution was collected in tube 2. All tubes were analyzed using a gamma counter to detect radioactivity. Data were obtained from at least three independent experiments. The respective formulae for in vitro surface binding activity and internalization were as follows:Surface binding = tube 1/(tube 0 + tube 1 + tube 2) × 100%.Internalization = tube 2/(tube 0 + tube 1 + tube 2) × 100%.

[5] = test system: A431-CCK2R (−) cells; assay: In vitro binding and internalization assay, A431-CCK2R (−) cells; format: cell-based; details: 37 °C
Method: as §3

[6] = test system: A431-CCK2R (−)/A431-CCK2R (+) tumor-bearing mice; assay: NanoSPECT/CT imaging of tumor-bearing mice; format: in vivo
Method: as §1
The NanoSPECT/CT® plus scanner system (Mediso Medical Imaging Systems; Budapest, Hungary) was utilized to detect in vivo tumors in the in vivo animal models. Both A431-CCK2R (+) and A431-CCK2R (−) cancer cells were inoculated subcutaneously into the inner right leg and left back leg of the mice. Radiopharmaceuticals—[^111In]In-DOTA-PP-F11N, [^111In]In-DOTA-INER-PP-F11N-1, and [^111In]In-DOTA-INER-PP-F11N-2 (1 mCi)—were injected once the mean tumor volume reached approximately 200–500 mm^3. Inhalant (1–2% isoflurane) was used to anesthetize the mice during imaging acquisition. X-ray CT images and SPECT images were taken 4, 24, and 48 h after tail-vein injection. NanoSPECT imaging was acquired using nine multi-pinhole gamma detectors with high-resolution collimators. The energy window was set at 171 and 245 KeV ± 10%, the image size was set at 256 × 256, and the field of view was set at 60 mm × 100 mm.
For Lu-177, only 208 keV photons were used for imaging, with an energy window set at 208 keV ± 10%. Although Lu-177 also emits lower abundance photons at 113 keV, the 208 keV photon provides better image quality due to reduced scatter and higher energy resolution. Therefore, the gamma camera energy windows were specifically tailored to the photon emission profiles of each radionuclide to ensure optimal detection efficiency and image accuracy.
as §2

[7] = Histopathological examinations (H&E) of mice after radiolabeled drug administration; format: in vivo; details: light microscopy
Excerpt: To investigate the pathological alterations in tumor-bearing mice receiving radiopharmaceuticals, […] tissues, including tumors, heart, liver, and kidneys, were collected. The specimens were first fixed using 10% buffered neutral formalin and then embedded in paraffin. Sections of 3–5 μm thickness were stained with H&E and examined using light microscopy (40 × and 20 ×).

[8] = Lu-177-labeled, 37 °C FBS, 144 h
[9] = labeled with Lu-177, each time point (Figure 2C, 4 °C PBS)

## CCCC[C@H](NC(=O)[C@H](Cc1c[nH]c2ccccc12)NC(=O)CNC(=O)[C@H](Cc1ccc(O)cc1)NC(=O)[C@H](C)NC(=O)[C@@H](CCC(=O)O)NC(=O)[C@@H](CCC(=O)O)NC(=O)[C@@H](CCC(=O)O)NC(=O)[C@@H](CCC(=O)O)NC(=O)[C@@H](CCC(=O)O)NC(=O)[C@@H](CCC(=O)O)NC(=O)CN1CCN(CC(=O)O)CCN(CC(=O)O)CCN(CC(=O)O)CC1)C(=O)N[C@@H](CC(=O)O)C(=O)N[C@@H](Cc1ccccc1)C(N)=O [[^177Lu]Lu-DOTA-PP-F11N, metal not drawn, reference compound]
[1]
  tumor volume at D23: 1884.72 ± 333.13 mm^3
[2]; kidneys, read-out: radiotracer accumulation in the kidneys
  tissue uptake at 72 h: 14.2 ± 5.9 %ID/g
[2]; tumor (A431-CCK2R (+)), read-out: tumor uptake of radiopharmaceuticals
  tissue uptake at 72 h: 0.33 ± 0.02 %ID/g
[3]; 4 °C PBS, 144 h after Lu-177 labeling
  metabolic stability: more than 95%
[3]; [8]
  metabolic stability: below 60%
[4]; 1 h
  internalization activity: 37.37 ± 3.04%
  surface binding activity: 6.60 ± 0.17%
[4]; 4 h
  internalization activity: 71.44 ± 3.52%
  surface binding activity: 11.51 ± 3.16%
[5]; 1 h
  internalization activity: 1.26 ± 0.06 %IA/106 cells
  surface binding activity: 3.42 ± 0.21 %IA/106 cells
[5]; 4 h
  internalization activity: 1.29 ± 0.01 %IA/106 cells
  surface binding activity: 3.24 ± 0.15 %IA/106 cells
[6]; NanoSPECT/CT, accumulation from one hour
  washout of radiotracer accumulation in both kidneys, time after injection: more than 48 h
[6]; tail-vein injection, Lu-177-labeled
  radiotracer accumulation in the tumor region on NanoSPECT/CT: relatively low
[7]
  histopathological changes in the kidneys: renal tubular necrosis (arrow 1), moderate renal tubular casts (arrow 2), slight renal tubular degeneration (arrow 3), and neutrophil infiltration (arrow 4); also recorded: moderate/severe renal tubular necrosis (arrow 1), moderate renal tubular casts (arrow 2), slight renal tubular degeneration (arrow 3), and slight infiltration of neutrophils (arrow 4)
  histopathological changes in the liver and heart: no significant histopathological changes
[7]; listed as PP-F11N
  histopathological changes in the kidneys: renal tubular necrosis and inflammation

## DOTA-(Glu)6-Ala-Tyr-Gly-Trp-Nle-Asp-Phe-NH2 [DOTA-PP-F11N, reference compound]
[3]; In-111-labeled, 37 °C FBS (Figure 2B)
  metabolic stability: less metabolic stability
[3]; Lu-177-labeled, 37 °C FBS, 4 h
  metabolic stability: 94.6 ± 0.1%
[3]; [8]
  metabolic stability: 56.4 ± 0.1%
[3]; [9]
  metabolic stability: more than 90%

## DOTA-Lys(-4-TBA)-6-AMBA-(Glu)6-Ala-Tyr-Gly-Trp-Nle-Asp-Phe-NH2 [DOTA-INER-PP-F11N-1]
[3]; [8]
  metabolic stability: 99%
[3]; [9]
  metabolic stability: more than 90%

## DOTA-Lys(-4-TBA)-AHA-(Glu)6-Ala-Tyr-Gly-Trp-Nle-Asp-Phe-NH2 [DOTA-INER-PP-F11N-2]
[3]; [9]
  metabolic stability: more than 90%
